{"source": "patent US20150056205A1", "about": "“STEROID SPARING AGENTS AND METHODS OF USING SAME” (BIOGEN IDEC MA INC., priority 2004, published 2015)", "origin": "cited, not measured here", "molecules": {"B1": {"name": "mu MAb 21.6: mouse monoclonal antibody specific for the α4 subunit of VLA-4; donor immunoglobulin for the humanized antibodies (antibody, V domains shown)", "VH": "MKCSWVMFFLMAVVTGVNSEVQLQQSGAELVKPGASVKLSCTASGFNIKDTYIHCVKQRPEQGLEWIGRIDPANGYTKYDPKFQGKATITADTSSNTAYLQLSSLTSEDTAVYFCAREGYYGNYGVYAMDYWGQGTSVTV", "VL": "DIQMTQSPSSLSASLGGKVTITCKTSQDINKYMAWYQHKPGKRPRLLIHYTSALQPGIPSRFSGSGSGRDYSFNISNLEPEDIATYYCLQYDNLWTFGGGTKLEIK"}}, "key": {"[1]": {"target": "T1, α4 subunit of VLA-4 (Homo sapiens, UniProt P13612)", "T1 construct": "endogenous in cells; host or cells: human lymphocytes (adhering to TNF-stimulated rat brain cell cultures)", "details": "rat brain cells stimulated with tumor necrosis factor; cited from earlier work"}, "[2]": {"target": "VLA-4 (Homo sapiens, UniProt P13612)", "details": "cited from earlier work"}}}
{"molecule": "B1", "values": [{"measurement": "inhibition of human lymphocyte binding to tissue cultures of rat brain cells", "setting": "[1]", "value": "inhibit human lymphocyte binding"}, {"measurement": "binding affinity for VLA-4", "setting": "[2]", "value": "about 10^9 M^−1"}]}
